In paper PMC3239194:

Key:
[1] = target: I-Bth0305I full-length enzyme containing a catalytically inactivating D222N mutation (Bacillus thuringiensis 0305ϕ8–36 bacteriophage); assay: SEC
[2] = target: I-Bth0305I isolated catalytic domain containing a D196A mutation (Bacillus thuringiensis 0305ϕ8–36 bacteriophage); assay: SEC

Substance	stoichiometry N [1]	stoichiometry N [2]
I-Bth0305I full-length enzyme containing a catalytically inactivating D222N mutation	2	
I-Bth0305I isolated catalytic domain containing a D196A mutation (domain or fragment)		2
